# B1: F8 IgG: Chimaeric anti-ED-A antibody: human F8 VH/VL fused to murine IgG2a constant regions; heavy chain SEQ ID NO: 11, light chain SEQ ID NO: 12 (antibody)
# heavy: EVQLLESGGGLVQPGGSLRLSCAASGFTFSLFTMSWVRQAPGKGLEWVSAISGSGGSTYYADSVKGRFTISRDNSKNTLYLQMNSLRAEDTAVYYCAKSTHLYLFDYWGQGTLVTVSSAKTTAPSVYPLAPVCGDTTGSSVTLGCLVKGYFPEPVTLTWNSGSLSSGVHTFPAVLQSDLYTLSSSVTVTSSTWPSQSITCNVAHPASSTKVDKKIEPRGPTIKPCPPCKCPAPNLLGGPSVFIFPPKIKDVLMISLSPIVTCVVVDVSEDDPDVQISWFVNNVEVHTAQTQTHREDYNSTLRVVSALPIQHQDWMSGKEFKCKVNNKDLPAPIERTISKPKGSVRAPQVYVLPPPEEEMTKKQVTLTCMVTDFMPEDIYVEWTNNGKTELNYKNTEPVLDSDGSYFMYSKLRVEKKNWVERNSYSCSVVHEGLHNHHTTKSFSRTPGK
# light: EIVLTQSPGTLSLSPGERATLSCRASQSVSMPFLAWYQQKPGQAPRLLIYGASSRATGIPDRFSGSGSGTDFTLTISRLEPEDFAVYYCQQMRGRPPTFGQGTKVEIKRTDAAPTVSIFPPSSEQLTSGGASVVCFLNNFYPKDINVKWKIDGSERQNGVLNSWTDQDSKDSTYSMSSTLTLTKDEYERHNSYTCEATHKTSTSPIVKSFNRNEC
# Columns and labels:
# [1] = test system: MCT-induced PH; assay: Echocardiographic assessment in mouse model of MCT-induced PH; format: in vivo, C57BL/6 mice
# Text: PH was induced in C57BL/6 mice (bodyweight: 25-30 g). The animals were obtained from ZET facility (Zentale Experimentelle Tierhaltung) of the University Hospital Jena (UKJ, Jena, Germany). Prior to PH induction, mice were allowed to acclimatize for at least 7 days with ad libitum access to food and water as well as controlled light/dark cycles. 41 animals were investigated divided into the following five experimental groups: • 1) sham induced controls (n=7) • 2) MCT induced PH (n=12) • 3) MCT induced PH+MAC (n=6) • 4) MCT induced PH+F8 IgG (n=8) • 5) MCT induced PH+KSF IgG (n=8) For PH induction, the Monocrotaline (MCT, Carl Roth, Germany) method was used. The sham induced controls were injected with 30 μl NaCl not containing MCT at day 1 (single dose; intraperitoneally, i.p.). […] The other 4 experimental groups were injected with MCT to induce PH (single dose; intraperitoneally, i.p.; 60 mg/kg body weight; volume 30 μl). Animals in the MCT induced PH+MAC group received the drug (Macitentan, Actelion Pharmaceuticals Ltd.) from day 14 to day 28 (once daily; per os; 15 mg/kg body weight). Animals in the MCT induced PH+F8 IgG group received F8 IgG 3 times on day 14, 16 and 18 (intravenously, i.v.; 195 μg/injection; volume 200 μl). Similarly, animals in the MCT induced PH+KSF IgG group received KSF IgG 3 times on day 14, 16 and 18 (intravenously, i.v.; 195 μg/injection; volume 120 μl). Echocardiographic assessment was performed on day 28 using the Vevo 770 Rodent-Ultrasound-System, Visual Sonic, Canada, 17 MHz probe RMV176. Before echocardiography, mice were anesthetized with isoflurane for a duration time of less than 10 minutes (isoflurane-CP, 2.5V %, FiO2 1.0, oxygen per inhalation-flow dosage). Body temperature and respiratory rate were continuously monitored. All surrogate parameters of right ventricular (RV) morphology and function were assessed, among others, RV basal and medial diameters (in mm), RV length (in mm), tricuspid annular plane systolic excursion (TAPSE, in mm), right atrial area (RA area, in mm^2) or main pulmonary artery diameter (MPA, in mm). Statistical analyses were performed using IBM SPSS statistical software, version 28.0 (IBM SPSS Statistics for Windows. Armonk, NY, USA). Data are expressed as mean±standard deviation. Kruskal-Wallis and Mann-Whitney-U test were used to test for significant differences between the different groups. A p-value<0.05 as statistically significant.
# [2] = test system: MCT-induced PH; assay: Mouse model of MCT-induced PH, overall hemodynamic, echocardiographic and histopathological evaluation; format: in vivo, C57BL/6 mice; details: compared with MAC treatment
# Text: PH was induced in C57BL/6 mice (bodyweight: 25-30 g). The animals were obtained from ZET facility (Zentale Experimentelle Tierhaltung) of the University Hospital Jena (UKJ, Jena, Germany). Prior to PH induction, mice were allowed to acclimatize for at least 7 days with ad libitum access to food and water as well as controlled light/dark cycles. 41 animals were investigated divided into the following five experimental groups: • 1) sham induced controls (n=7) • 2) MCT induced PH (n=12) • 3) MCT induced PH+MAC (n=6) • 4) MCT induced PH+F8 IgG (n=8) • 5) MCT induced PH+KSF IgG (n=8) For PH induction, the Monocrotaline (MCT, Carl Roth, Germany) method was used. […] The clinical condition was assessed using an established score (clinical severity score=CSS) from 1 to 5 (1=no signs of clinical alterations, 2=low-grade impairment, 3=mid-grade impairment, 4=high-grade impairment, 5=exitus) obtained by evaluating spontaneous activity, reaction to exogenous stimuli and posture. […] Body temperature and respiratory rate were continuously monitored. All surrogate parameters of right ventricular (RV) morphology and function were assessed, among others, RV basal and medial diameters (in mm), RV length (in mm), tricuspid annular plane systolic excursion (TAPSE, in mm), right atrial area (RA area, in mm^2) or main pulmonary artery diameter (MPA, in mm). […] Data are expressed as mean±standard deviation. […]
molecule,measurement,setting,value
B1,RV medial diameter compared to the negative controls,"[1]; day 28, all groups p<0.05, F8 IgG p=0.028",significantly increased
same,RV basal diameter compared with the MCT-induced PH group without treatment,"[1]; day 28, p=0.002",significant attenuation
same,RA area compared with the MCT-induced PH group with MAC treatment,"[1]; day 28, p=0.003",significant reduction
same,TAPSE compared to the MCT-induced PH group with MAC treatment,"[1]; day 28, p=0.003",significant improvement
same,TAPSE compared to the MCT-induced PH group without treatment,"[1]; day 28, p=0.004",significant improvement
same,RV basal diameter compared with the MCT-induced PH group with KSF IgG treatment,"[1]; day 28, p=0.005",significant attenuation
same,RV basal diameter compared with the MCT-induced PH group with MAC treatment,"[1]; day 28, p=0.005",significant attenuation
same,RA area compared with the MCT-induced PH group with KSF IgG treatment,"[1]; day 28, p=0.009",significant reduction
same,RV medial diameter compared with the MCT-induced PH group with KSF IgG treatment,"[1]; day 28, p=0.010",significantly reduced
same,RV medial diameter compared with the MCT-induced PH group without treatment,"[1]; day 28, p=0.017",significantly reduced
same,RA area compared with the MCT-induced PH group without treatment,"[1]; day 28, p=0.021",significant reduction
same,TAPSE compared to the MCT-induced PH group with KSF IgG treatment,"[1]; day 28, p=0.049",significant improvement
same,echocardiographic signs of right ventricular load and dysfunction,[1]; in contrast to treatment with KSF IgG,improvement
same,"beneficial effects with respect to the majority of the parameters (RVPsys, echocardiographic signs, lung tissue damage)",[2],superior to MAC treatment

# — patent US20250197485A1, “Anti-ED-A Antibodies for the Treatment of Pulmonary Hypertension” (Universitätsklinikum Jena, priority 2022, published 2025)
